In patent publication US20070036793A1, “Methods for use of an lkb1/strad7mo25 complex” (priority 2003, published 2007):
Blank lines part the entries; values can stand above or below the binder they belong to.

Assays:
[1] = biological target: T1, T-loop peptide of AMPK (Example 3)
T1 chain: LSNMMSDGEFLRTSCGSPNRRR

[2] = biological target: T2, Flag-tagged STRADβ, Q9C0K7
T2 chain: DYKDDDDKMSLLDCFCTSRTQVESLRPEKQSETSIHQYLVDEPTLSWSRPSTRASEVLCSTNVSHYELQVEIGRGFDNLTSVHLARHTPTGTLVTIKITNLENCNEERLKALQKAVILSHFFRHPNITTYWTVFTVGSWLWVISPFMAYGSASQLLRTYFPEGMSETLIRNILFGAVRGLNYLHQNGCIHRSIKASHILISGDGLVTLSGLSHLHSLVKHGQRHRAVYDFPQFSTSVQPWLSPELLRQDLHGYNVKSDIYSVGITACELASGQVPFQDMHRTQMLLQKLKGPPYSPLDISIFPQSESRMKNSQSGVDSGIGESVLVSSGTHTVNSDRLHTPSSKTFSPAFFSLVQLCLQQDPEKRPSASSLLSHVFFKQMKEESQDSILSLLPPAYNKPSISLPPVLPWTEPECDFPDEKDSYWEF

[3] = biological target: T3, Flag-tagged STRADα, Q7RTN6
T3 chain: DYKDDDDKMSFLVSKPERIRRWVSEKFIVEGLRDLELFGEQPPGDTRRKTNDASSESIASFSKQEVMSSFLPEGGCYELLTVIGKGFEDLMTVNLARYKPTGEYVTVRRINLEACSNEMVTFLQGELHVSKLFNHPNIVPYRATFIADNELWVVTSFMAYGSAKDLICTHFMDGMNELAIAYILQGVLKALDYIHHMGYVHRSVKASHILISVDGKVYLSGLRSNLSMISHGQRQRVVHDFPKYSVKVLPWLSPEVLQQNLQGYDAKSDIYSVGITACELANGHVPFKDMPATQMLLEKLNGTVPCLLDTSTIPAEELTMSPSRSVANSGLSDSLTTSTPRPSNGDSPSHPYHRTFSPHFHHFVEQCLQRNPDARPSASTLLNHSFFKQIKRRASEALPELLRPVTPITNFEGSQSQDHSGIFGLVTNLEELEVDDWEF

Flag-tagged STRADα = biological target: T4, Flag-tagged STRADα (human, UniProt Q7RTN6 1-431, limits assumed); experiment: heterotrimeric complex purified through GST-LKB1 from co-transfected 293 cells, colloidal blue gel and blots
T4 construct: pCMV5 vector; also called Flag-STRADα; FLAG-STRADα
T4 sequence: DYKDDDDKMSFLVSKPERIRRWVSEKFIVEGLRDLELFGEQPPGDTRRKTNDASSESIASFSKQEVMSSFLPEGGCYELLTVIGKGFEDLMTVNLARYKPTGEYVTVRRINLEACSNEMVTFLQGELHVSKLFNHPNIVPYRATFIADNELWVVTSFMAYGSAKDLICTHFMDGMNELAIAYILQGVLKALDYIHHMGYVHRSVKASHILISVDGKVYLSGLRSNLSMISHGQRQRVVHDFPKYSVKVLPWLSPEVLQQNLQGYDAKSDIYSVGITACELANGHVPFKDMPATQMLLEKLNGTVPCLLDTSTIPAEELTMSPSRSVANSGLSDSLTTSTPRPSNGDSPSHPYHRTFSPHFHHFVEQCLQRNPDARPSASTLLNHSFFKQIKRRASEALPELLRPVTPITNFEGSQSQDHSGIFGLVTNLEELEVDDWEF
Experimental: (§1) FIG. 4. MO25α is associated with LKB1 through STRAD (A) 293 cells were transfected with plasmids encoding for the expression of the indicated GST fusion proteins together with Myc-MO25α. 36 h post transfection, the GST tagged proteins were affinity purified from the cell lysates using glutathione-Sepharose as described in Materials and Methods. […] 5 μg of total cell lysates prior to affinity purification were also subjected to immunoblotting with anti-Myc antibody to ensure that Myc-MO25α was expressed at similar levels in each co-transfection (lower panel). (B) N-terminal GST tagged LKB1 was expressed in 293 cells in the presence or absence of Flag-STRADα and purified as above. The purified proteins were subjected to SDS-polyacrylamide gel electrophoresis and visualised by Colloidal blue staining (upper panel). The faint protein band indicated, corresponding to an endogenous protein of 40-kDa (marked *), was identified by tryptic peptide mass-spectral fingerprint as endogenously expressed MO25α (with 38% sequence coverage). The purified proteins were also immunoblotted with the indicated antibodies (lower panels). (C) As above except that GST-LKB1 was expressed in 293 cells together with the indicated isoforms of Flag-STRAD and Myc-MO25 and the proteins visualised by colloidal blue staining were also immunoblotted with the indicated antibodies. For all panels, similar results were obtained in at least 3 separate experiments.
(§2) Expression of GST-fusion proteins in 293 cells and affinity purification. 10-cm diameter dishes of 293 cells were transiently transfected with 3 to 10 μg of the pEBG-2T constructs using a modified calcium phosphate method (Alessi et al., 1996). 36 h post-transfection, the cells were lysed and the clarified lysates were incubated for 1 h on a rotating platform with glutathione-Sepharose (25 μl/dish of lysate) previously equilibrated in lysis Buffer.

Flag-tagged STRADβ = biological target: T5, Flag-tagged STRADβ (human, UniProt Q9C0K7 1-418); experiment: as above
T5 construct: pCMV5 vector; also called Flag-STRADβ; FLAG-STRADβ
T5 sequence: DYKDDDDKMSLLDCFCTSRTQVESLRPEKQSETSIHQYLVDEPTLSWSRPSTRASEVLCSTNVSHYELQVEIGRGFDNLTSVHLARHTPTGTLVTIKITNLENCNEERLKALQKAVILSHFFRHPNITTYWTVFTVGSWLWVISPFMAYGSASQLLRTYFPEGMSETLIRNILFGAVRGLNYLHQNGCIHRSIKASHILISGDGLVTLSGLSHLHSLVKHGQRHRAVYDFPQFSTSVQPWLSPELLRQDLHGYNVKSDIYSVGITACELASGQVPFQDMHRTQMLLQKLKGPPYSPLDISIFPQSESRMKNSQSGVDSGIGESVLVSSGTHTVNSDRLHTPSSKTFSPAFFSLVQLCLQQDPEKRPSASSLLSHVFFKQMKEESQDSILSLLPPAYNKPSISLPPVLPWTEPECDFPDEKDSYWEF
Experimental: as §1, §2

B1: recombinant GST-LKB1:STRADα:MO25α complex (protein)
chain 1: MDVADPEPLGLFSEGELMSVGMDTFIHRIDSTEVIYQPRRKRAKLIGKYLMGDLLGEGSYGKVKEVLDSETLCRRAVKILKKKKLRRIPNGEANVKKEIQLLRRLRHRNVIQLVDVLYNEEKQKMYMVMEYCVCGMQEMLDSVPEKRFPVCQAHGYFRQLIDGLEYLHSQGIVHKDIKPGNLLLTTNGTLKISDLGVAEALHPFAVDDTCRTSQGSPAFQPPEIANGLDTFSGFKVDIWSAGVTLYNITTGLYPFEGDNIYKLFENIGRGDFTIPCDCGPPLSDLLRGMLEYEPAKRFSIRQIRQHSWFRKKHPLAEALVPIPPSPDTKDRWRSMTVVPYLEDLHGRAEEEEEEDLFDIEDGIIYTQDFTVPGQVLEEEVGQNGQSHSLPKAVCVNGTEPQLSSKVKPEGRPGTANPARKVCSSNKIRRLSACKQQ
chain 2: DYKDDDDKMSFLVSKPERIRRWVSEKFIVEGLRDLELFGEQPPGDTRRKTNDASSESIASFSKQEVMSSFLPEGGCYELLTVIGKGFEDLMTVNLARYKPTGEYVTVRRINLEACSNEMVTFLQGELHVSKLFNHPNIVPYRATFIADNELWVVTSFMAYGSAKDLICTHFMDGMNELAIAYILQGVLKALDYIHHMGYVHRSVKASHILISVDGKVYLSGLRSNLSMISHGQRQRVVHDFPKYSVKVLPWLSPEVLQQNLQGYDAKSDIYSVGITACELANGHVPFKDMPATQMLLEKLNGTVPCLLDTSTIPAEELTMSPSRSVANSGLSDSLTTSTPRPSNGDSPSHPYHRTFSPHFHHFVEQCLQRNPDARPSASTLLNHSFFKQIKRRASEALPELLRPVTPITNFEGSQSQDHSGIFGLVTNLEELEVDDWEF
chain 3: MPFPFGKSHKSPADIVKNLKESMAVLEKQDISDKKAEKATEEVSKNLVAMKEILYGTNEKEPQTEAVAQLAQELYNSGLLSTLVADLQLIDFEGKKDVAQIFNNILRRQIGTRTPTVEYICTQQNILFMLLKGYESPEIALNCGIMLRECIRHEPLAKIILWSEQFYDFFRYVEMSTFDIASDAFATFKDLLTRHKLLSAEFLEQHYDRFFSEYEKLLHSENYVTKRQSLKLLGELLLDRHNFTIMTKYISKPENLKLMMNLLRDKSRNIQFEAFHVFKVFVANPNKTQPILDILLKNQAKLIEFLSKFQNDRTEDEQFNDEKTYLVKQIRDLKRPAQQEA
- Km (phosphorylation of the T-loop peptide) [1]: The Km for the peptide was estimated to be 1.80±0.48
- Vmax of phosphorylation of AMPKtide by the GST-LKB1-STRADα-MO25α complex [1]: Vmax: 23.43 ± 3.51 U/mg

B2: N-terminal GST tagged wild type LKB1 (protein)
chain: MDVADPEPLGLFSEGELMSVGMDTFIHRIDSTEVIYQPRRKRAKLIGKYLMGDLLGEGSYGKVKEVLDSETLCRRAVKILKKKKLRRIPNGEANVKKEIQLLRRLRHRNVIQLVDVLYNEEKQKMYMVMEYCVCGMQEMLDSVPEKRFPVCQAHGYFRQLIDGLEYLHSQGIVHKDIKPGNLLLTTNGTLKISDLGVAEALHPFAVDDTCRTSQGSPAFQPPEIANGLDTFSGFKVDIWSAGVTLYNITTGLYPFEGDNIYKLFENIGRGDFTIPCDCGPPLSDLLRGMLEYEPAKRFSIRQIRQHSWFRKKHPLAEALVPIPPSPDTKDRWRSMTVVPYLEDLHGRAEEEEEEDLFDIEDGIIYTQDFTVPGQVLEEEVGQNGQSHSLPKAVCVNGTEPQLSSKVKPEGRPGTANPARKVCSSNKIRRLSACKQQ
- LKB1 activity (autophosphorylation and phosphorylation of MBP) [2]: LKB1 was only activated by STRADβ in the presence of MO25 isoforms
- LKB1 activity (autophosphorylation and phosphorylation of MBP) [3]: co-expression with STRADα induced an 4-fold increase in LKB1 activity
- Relative activation (MBP): 32P phosphorylation of MBP by affinity purified GST-LKB1-WT co-expressed with STRADα (lane 2), GST-LKB1 alone (lane 1) = 1 [3]: 3.9

- binding result (Flag-tagged STRADα): binds
- binding result (Flag-tagged STRADβ): binds
B3: N-terminal Myc-tagged MO25β (other)
chain: MEQKLISEEDLPLFSKSHKNPAEIVKILKDNLAILEKQDKKTDKASEEVSKSLQAMKEILCGTNEKEPPTEAVAQLAQELYSSGLLVTLIADLQLIDFEGKKDVTQIFNNILRRQIGTRSPTVEYISAHPHILFMLLKGYEAPQIALRCGIMLRECIRHEPLAKIILFSNQFRDFFKYVELSTFDIASDAFATFKDLLTRHKVLVADFLEQNYDTIFEDYEKLLQSENYVTKRQSLKLLGELILDRHNFAIMTKYISKPENLKLMMNLLRDKSPNIQFEAFHVFKVFVASPHKTQPIVEILLKNQPKLIEFLSSFQKERTDDEQFADEKNYLIKQIRDLKKTAP
notes: also called Myc-MO25β; myc-MO25β
